Assay results reported in patent US20240226163A1.

What was measured:
Assay in all cases: flow cytometry, peptide-pulsed T2 cells, 100 nM antibody
[1] = target: HLA-A*02:01 presenting PAPPA2 307-316 peptide (…) (human)
[2] = target: HLA-A*02:01 presenting MAGE-A8 232-241 peptide (…) (human)
[3] = target: HLA-A*02:01 presenting SCL25A19 111-120 peptide (…) (human)
[4] = target: HLA-A*02:01 presenting MAGE-A10 254-263 peptide (…) (human)
[5] = target: HLA-A*02:01 presenting THBS3 116-125 peptide (…) (human)
[6] = target: HLA-A*02:01 presenting CCDC36 417-426 peptide (…) (human)
[7] = target: HLA-A*02:01 presenting CELSR3 1594-1603 peptide (…) (human)
[8] = target: HLA-A*02:01 presenting LPIN2 823-832 peptide (…) (human)
[9] = target: HLA-A*02:01 presenting MAGE-A4 230-239 peptide (…) (human)
[10] = target: HLA-A*02:01 presenting FAT4 4053-4062 peptide (…) (human)

Antibody Binding Ratio (pulsed cell MFI/Unpulsed cell MFI) [1]: 0.9
Antibody Binding Ratio (pulsed cell MFI/Unpulsed cell MFI) [2]: 3.3
Antibody Binding Ratio (pulsed cell MFI/Unpulsed cell MFI) [3]: 0.9
Antibody Binding Ratio (pulsed cell MFI/Unpulsed cell MFI) [4]: 1.3
Antibody Binding Ratio (pulsed cell MFI/Unpulsed cell MFI) [5]: 1
Antibody Binding Ratio (pulsed cell MFI/Unpulsed cell MFI) [6]: 1.1
Antibody Binding Ratio (pulsed cell MFI/Unpulsed cell MFI) [7]: 0.9
Antibody Binding Ratio (pulsed cell MFI/Unpulsed cell MFI) [8]: 0.9
Antibody Binding Ratio (pulsed cell MFI/Unpulsed cell MFI) [9]: 4.3
Antibody Binding Ratio (pulsed cell MFI/Unpulsed cell MFI) [10]: 1.1
Substance: mAb1097 (mIgG2a Isotype Control) (antibody)
